Measurements from publication PMC11401214, “A new generation of nanobody research tools using improved mass spectrometry-based discovery methods” (The Journal of Biological Chemistry, 2024).
Residue numbers refer to the chain shown, from its start.

B1: LaG94-4 (VHH)
VHH: DVQLVESGGGLVQAGGSLRLSCAASGDTSSIHFWEWYRQAPGKQRELVATANNGDFTHLQDSVKGRFTISKDNAKSTVYLQMNDLKPEDTAVYLCYARSYSNSNFWGQGTQVTVS
B2: LaG94-5 (VHH)
VHH: QVQLAESGGGLVQAGGSLRLSCAASGRTFAMGWFRRAPGKEREFVASMSRSGLDTHYADSVKGRFTISRDNALNTVYLQTDSLKPEDTGDYFCAVGLRYWSLSGDYIRREKYDVWGQGTQVTVS
B3: LaG94-6 (VHH)
VHH: QVQLVESGGGAVQAGGSLRLSCAASGLTFSLYTMGWFRQAPEKEPEFVAYISKSGDTTTYADSVKGRFTIGRDNAKSTVYLQMNSLKSEDTAVYYCAASIKREITPNSIYRGQGTQVTVS
B4: LaG94-8 (VHH)
VHH: QVQLVESGGGLVQAGGSLRLSCAASGRTFMNYAMGWFRQAPGKGREFVASISWTGETSTYADFVKGRFTISRDNAKNTVYLQMDSLKPEDTAVYRCAAKRATDFDDTVREAAEADYWGQGTQVTVS
B5: LaG94-9 (VHH)
VHH: QVQLVESGGGLVQPGGSLRLSCAASGGTFDTHTMGWFRQAPGKQREFVSAIRLHGVGTYYADSVKGRFTISRENAKNTVHLQMNNLKPEDTAVYYCAADRNWSRATEKEEYDYWGQGTQVTVS
B6: LaG94-10 (VHH)
VHH: QVQLVESGGGLVQAGGSLRLSCAASGLTLRVYDVTWFRQAPGKEREFVGTVNRNGVVTDYADSVKGRFTISRDNPKNTIYLQMNSLKPEDTAVYYCAAKTRPKLSTLWDEYIYRGQGTQVTVS
B7: LaG94-1 (VHH)
VHH: QVQLVESGGGLVQTGDSLRLSCRASGLTLSVYSTGWFRQAPGKEHENVAWISRSGDETYYEDSVKGRFTISRDNAKNTVYLQMNDLKPEDMARYYCAASNRGRTTAWNLYIYRGQGTQVTVS
B8: LaG94-12 (VHH)
VHH: QVQLVESGGRLVQAGGSLRLSCAVSGGTFSLYSLGWFRQAPGKEREFVAAFSREDGTTSFADSVKGRFTMFRDGTKNTVYLQMNSLKQEDTAVYSCAATVRAQPSYSWSSYVYRGLGTQVTVS
B9: LaG94-15 (VHH)
VHH: QVQLVESGGGAVQSGGSLSLSCAASGGIRSISAMTWFRQAPGREREFVAAVTRTLGTTYYTDSVKGRFTISRDSVKGTLYLRMNNMRPEDAAVYYCAARTRGFSTKVALETTDGMDYWGKGTLVTVS
B10: LaG94-18 (VHH)
VHH: QVQLVESGGGLVQAGGSLRLSCVASGRTFSTSAMAWWRQAPGKEREFVAAISWNVGTTYYPDSVKGRFTISRDKAQNAVYLQMNSLKPEDTAVYYCAARVTGYFGDQVRRADDYRYWGQGTQVTVS
B11: LaG94-2 (VHH)
VHH: DVQLVESGGALVQAGGSLRLSCEFSGGTFNLYGIGWFRQAPEQDHEFVAGVSRYGSTYESVSVKGRFTSSRDNAKNSAYLEMNTLKPEDTGVYTCAATVREQVPTNFGSYIYRGQGTQVTVS
B12: LaG94-3 (VHH)
VHH: QVQLVESGGGLVQAGGSLRLSCTASGGTVSSSGMGWFRQSSGNDRDFVAFITPTGPTTWYEESVNSRFTVSRDNAKNTIYLQMKSLRPEDTAIYYCAAGNIGRDSRTYPYWGQGTQVTVS
B13: GST-1 (VHH)
VHH: QVQLVESGGGLVQAGGSLRLSCVCVGRAFGVYAMGWFRQSPGKEREFVAAITWNGGSIDYADSVKGRFAISRDNPPNTVYLQMNSLKPEDTAVYYCAKYRNNYYNEAPNSWGQGTQVTVS
notes: anti-GST nanobody; source: ArcticExpress (DE3) cells, purified from periplasm
B14: GST-2 (VHH)
VHH: B13 VHH with C24V, V31A, D59T, Q82E, R100T, N109K
notes: as for B13
B15: GST-3 (VHH)
VHH: QVQLVESGGGLVQPGGSLRLSCADSGRIFSDYTMAWFRQPPGKEREFVASINRSGLGTYYADSVKGRFTVTRDNAKNMVYLQMNSLTVEDTAVYYCGARWGGSYIDPREGMYDFRGQGTQVTVS
notes: as for B13
B16: GST-4 (VHH)
VHH: B13 VHH
notes: as for B13
B17: GST-5 (VHH)
VHH: QVQLVESGGGLVQAGGSLRLSCVVTGRAFGAYAMGWFRQSPGKEREFVAAITWNGGTTNYADSVKGRFAISRDNPPNTVYLQMNSLKPEDTAVYYCAKYPNNFWHNEAPDSWGRGTQVTVS
notes: as for B13
B18: GST-6 (VHH)
VHH: QVQLVESGGGLVQPGESLRLSCAASGFTFSSHRMNWLRQAPGKGLEWVSTTSTGGGSAATYYVNSVKGRFTVSRDDAKNMLYLQMNSLKPEDTARYYCAIPESPGRPFGSTWSEYRYWGQGTQVTVS
notes: as for B13
B19: GST-7 (VHH)
VHH: QVTLVESGGGLVQAGGSLGLSCTASGHTFNPYAMAWFRQAPGKEREFVAAIGWRVGTTYYTDSVKGRFTISADNAKNTAYLQMNSLKPEDTAVYYCAAGFGRSPSNYDYWGQGTQVTVS
notes: as for B13
B20: GST-8 (VHH)
VHH: QVQLVESGGDLVQAGGSLRLSCAASGSISAAYDMGWFRQVPGKQRELVASLGSGGFSAYADSVKGRFTVSRDNAKNTVYLQMNSLKPEDTGVYYCAARTPFDIWTTGRWGEYDYWGQGTQVTVS
notes: as for B13
B21: LaTdT-1 (VHH)
VHH: DVQLVESGGGLVPAGGSLRLSCAASTSDLFSRYTMGWFRQAPGKEREFVSAITGMSSMTKYADSVKGRFTVSRDNRKATMYLQMDSLKPEDTAVYYCAAHTTTAAATPQSMGLMLKYDHWGQGTEVTVS
B22: LaTdT-2 (VHH)
VHH: DVQLVESGGGLVQAGDSLRLSCAFSGSAFDTYAMGWFRQAPGKEREFVSAITWSGGNTYYADSAKGRFTISRDDAKNTVYLQMNSLKPEDAATYYCAANRYGSSWSPLTKMGQYEHWGQGTQVTVS
B23: LaTdT-8 (VHH)
VHH: QVQLVESGGGLVQAGDSLRLSCADAGLPYAFNHYGMAWFRQAPGKEREFVAGTSGGMTYYGDSVPDRFSFSRDNDKKTVHLHINSLKPEDTAVYYCAARLGGRYEDASDYDVWGQGTQVTVS
B24: LaTdT-9 (VHH)
VHH: QVQLVESGGGLVQPGDSLMLSCVISGHTFTNFRMGWFRQAPGKEREFVAGITWLFGRTDYADSVQGRFTISRDKGKDTMYLQMDSLKPEDTGVYTCAVQSGVLAYPMREGFYDIWGQGTHVTVS
B25: LaTdT-10 (VHH)
VHH: DVQLVESGGRLVQDGGSLRLSCEVSGGTFDTFAMGWFRQAPGKEREFVSAITWSGGNTYYGDSVKGRFTISRNNVKRTVYLQMISLKPEDTGVYYCAADPYGSSWSPLQKEGQYDYWGQGTQVTVS
B26: LaTdT-38 (VHH)
VHH: QVQLVESGGGLVQAGGSLRLSCAASGRSFSGNNMGWFRQVSGTEREFVAAISWSGLITEYSGAVKGRFTISRDNAKNTLYLQMNSLKPEDTAVYSCAADGRDVQLPGRSEYDYNYWGQGTQVTVS
B27: LaTdT-39 (VHH)
VHH: QVQLVESGGGLVQAGESLQLSCAASGGTLRDAIVGWFRQARGKEREFLASITWSGLSTNYSDSVKGRFVISRANPQNTAYLQMNSLKPEDTAIYYCAAKIGAFGLADEFRTVPQYDSWGQGTQVTVS
B28: LaTdT-44 (VHH)
VHH: B25 VHH with D1Q
B29: LaTdT-45 (VHH)
VHH: B22 VHH with D1Q

Molecular target: GFP [GFP: P42212]
Assay: SPR; GFP immobilised by EDC/NHS coupling (ProteOn XPR36, GLC chip, 5 ug/ml in 10 mM sodium acetate pH 5.0; or Biacore 8K, CM5 chip, 5 ug/ml, pH 5.5); nanobody as analyte; 20 mM Na-Hepes pH 7.4, 150 mM NaCl, 0.05% Tween 20; Langmuir binding model
Conditions: not given

Row | Binder | Kd [nM]
1 | B1 | 3.7
2 | B2 | < 0.00089
3 | B3 | 0.083
4 | B4 | 0.21
5 | B5 | 0.021
6 | B6 | 0.009
7 | B7 | 0.016
8 | B8 | 0.3
9 | B9 | < 0.00014
10 | B10 | 0.92
11 | B11 | 27
12 | B12 | 0.13

Molecular target: T1, GST (Schistosoma japonicum (assumed, …, UniProt P08515 = GST))
T1 construct: GST (glutathione S-transferase), the expression fusion protein tag; the methods describe only the production of GST-TEV protease; the 'GST' immobilised for SPR may be that fusion
T1 sequence (P08515 whole entry, looked up, the tested form may be a part): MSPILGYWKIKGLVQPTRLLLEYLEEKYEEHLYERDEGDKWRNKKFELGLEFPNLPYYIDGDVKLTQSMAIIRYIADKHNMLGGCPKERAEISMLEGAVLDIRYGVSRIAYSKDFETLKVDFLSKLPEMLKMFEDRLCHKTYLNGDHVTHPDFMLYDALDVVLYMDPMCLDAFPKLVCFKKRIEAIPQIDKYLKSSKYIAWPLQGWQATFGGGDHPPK
Assay: SPR; Biacore 8K; antigen immobilised on CM5 chip by amine coupling at 1 ug/ml (tdTomato) or 5 ug/ml (GST, IgGs) in 10 mM sodium acetate pH 5.5; nanobody injected in single-cycle kinetics at 0.1-10 nM; 20 mM Na-Hepes pH 7.4, 150 mM NaCl, 0.05% Tween 20; Langmuir 1:1 model, RIgG-1 and GIgG-4 fit to a two-step binding model
Conditions: both partners purified

Row | Binder | Kd [nM]
13 | B13 | 0.085
14 | B14 | 0.064
15 | B15 | 0.35
16 | B16 | 0.26
17 | B17 | 0.13
18 | B18 | 0.15
19 | B19 | 0.17
20 | B20 | 0.13

Molecular target: tdTomato
Assay: as above
Conditions: not given

Row | Binder | Kd [nM]
21 | B21 | < 0.018
22 | B22 | 0.0035
23 | B23 | 0.037
24 | B24 | 0.084
25 | B25 | 0.052
26 | B26 | 0.057
27 | B27 | 0.0059
28 | B28 | 0.044
29 | B29 | 0.028
